Test results taken from PMC3406685.

What was measured:
Experiment in all cases: real-time label-free cell adhesion
[1] = target: triple-helical peptide II-27-A (GVOGEA within (GPP)5 hosts)
[2] = target: Collagen Toolkit II peptide II-27
[3] = target: Collagen Toolkit III peptide III-7

integrin α1β1 on rat pheochromocytoma PC12 cells (from UniProt P18614 29-1180; P49134 21-799) (receptor)
adhesion relative to that on II-27 [1]: 40%
increase of adhesion on substitution of Mg2+ with Mn2+ [1]: 13%
increase of adhesion on substitution of Mg2+ with Mn2+ [2]: 65%
increase of adhesion on substitution of Mg2+ with Mn2+ [3]: 26%
